This assay has as its target LFA-1 on immune cells (THP-1 cells, activated T cells) (human) (UniProt P20701).

Substance “human recombinant EDIL3 (from UniProt O43854) (ligand)” showed an adhesion of THP-1 cells on TNF-α stimulated TEC monolayers (% inhibition of adhesion) of 55.
